Four molecules from US20240327804A1, “CONJUGATES AND METHODS OF USE THEREOF” (Regents of the University of Minnesota, priority 2023, published 2024) can be followed below.

Assay [1] deals with CD133+ HT29-R cells. The experiment in a line: Binding of CSANs to CD133+ HT29-R cells by flow cytometry. Conditions: fluorescein-labeled CSANs. As for the experimental part:
The Bangs beads (Bangs Laboratories, Cat: 815A) were collected and resuspended in PBS, and then stained with the fluorescently labeled antibody that detects the corresponding cell surface receptor (anti-EGFR-BV421, Biolegend, Cat: 352911; anti-HER2-BV421, Biolegend, Cat: 324420; anti-EpCAM-AF647, Biolegend, Cat: 118211) at 4° C. for >30 min, followed by wash steps. 100,000 of the cancer cells were collected and stained with the corresponding antibody at 4° C. for >30 min, followed by wash steps. The cells and beads were analyzed by flow cytometry. The calibration curve was generated based on the MFI of the beads and the corresponding antibody binding capacity of the beads. The receptor number was calculated based on the MFI of the cells stained with the antibody and the previously generated calibration curve. […]
The binding specificity of the CSANs to the corresponding cellular receptors was studied by flow cytometry. […] The cells were then pelleted, washed, and resuspended in 0.5 mL of cold DPBS and analyzed using an LSR II flow cytometer (BD Biosciences) at the University Flow Cytometry Resource (UFCR). […] The modified cells were then resuspended in 0.5 mL of cold DPBS and analyzed using an LSR II flow cytometer (BD Biosciences) at the University Flow Cytometry Resource (UFCR).
On the technique in general: Flow cytometry measures light scatter and fluorescence of single cells or particles in a stream.

Assay [2] concerns the target T1, epidermal growth factor receptor (EGFR) on A431-R / MDA-MB-231-R cells (human, UniProt P00533 25-1210).
T1 construct: whole, on cells
The experiment in a line: flow cytometry, fluorescein-labeled CSANs on A431-R cells, 1 h at 4° C. As for the experimental part:
(§1) The binding specificity of the CSANs to the corresponding cellular receptors was studied by flow cytometry. A431-R cells were chosen as the EGFR⁺ cell line; SK-BR-3-R cells were chosen as the HER2⁺ cell line; HT-29-R cells were chosen as the EpCAM⁺ cell line; HT29-R cells were chosen as the CD133⁺ cell line. The cells were harvested and washed with DPBS buffer (Gibco, Cat: 14190144), and aliquots of […] were then resuspended in 100 μL of DPBS solutions containing 0.5 μM of fluorescein-labeled CSANs and incubated for 1 h at 4° C. The cells were then pelleted, washed, and resuspended in 0.5 mL of cold DPBS and analyzed using an LSR II flow cytometer (BD Biosciences) at the University Flow Cytometry Resource (UFCR). For the cell surface modification with farnesylated CSANs, the sender cells were collected from cell culture, pelleted at 350 g for 5 min, and washed with 1 mL DPBS. Aliquots of 10⁵ cells were then incubated in 100 μL of DPBS solutions containing the desired concentrations of fluorescein-labeled farnesylated CSANs for at least 1 h at room temperature with rotation and washed twice with 1 mL cold DPBS to remove unbound CSANs. The modified cells were then resuspended in 0.5 mL of cold DPBS and analyzed using an LSR II flow cytometer (BD Biosciences) at the University Flow Cytometry Resource (UFCR).

Assay [3] addresses T2, epithelial cell adhesion molecule (EpCAM) on HT29-R cells (human, UniProt P16422 24-314).
T2 construct: whole, on cells
T2 sequence (looked up): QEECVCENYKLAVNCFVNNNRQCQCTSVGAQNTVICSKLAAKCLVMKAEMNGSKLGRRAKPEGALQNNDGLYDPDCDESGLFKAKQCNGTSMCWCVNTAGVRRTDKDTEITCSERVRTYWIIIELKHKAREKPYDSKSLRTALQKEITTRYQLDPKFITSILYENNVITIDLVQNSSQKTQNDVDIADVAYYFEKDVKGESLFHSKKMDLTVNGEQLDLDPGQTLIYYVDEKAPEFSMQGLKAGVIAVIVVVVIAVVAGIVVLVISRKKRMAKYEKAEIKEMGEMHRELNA
The experiment in a line: flow cytometry, fluorescein-labeled CSANs on HT29-R cells, 1 h at 4° C. As for the experimental part: as §1

The target of assay [4] is T3, human epidermal growth factor receptor 2 (HER2) on SK-BR-3-R cells (human, UniProt P04626 23-1255).
T3 construct: whole, on cells
The experiment in a line: flow cytometry, fluorescein-labeled CSANs on SK-BR-3-R cells, 1 h at 4° C. The procedure: as §1

The subject of assay [5] is receptor expressing target cells (A431-R, SK-BR-3-R, HT29-R). Description: Binding specificity of CSANs to cellular receptors by flow cytometry. As to conditions: unfarnesylated fluorescein-labeled CSANs, 0.5 μM, 1 h, 4° C. As for the experimental part: as §1, with “EGFR^+” for “EGFR⁺”, “HER2^+” for “HER2⁺”, “EpCAM^+” for “EpCAM⁺”, “CD133^+” for “CD133⁺”, “10^5” for “10⁵”

For assay [6], the target named is T2, epithelial cell adhesion molecule …. The experiment in a line: flow cytometry, 0.5 µM fluorescein-labeled CSANs on HT29-R (EpCAM+) cells, 1 h at 4° C. As for the experimental part:
as §1

B1: αCD133-scFv-DHFR^2 CSANs: fluorescein-labeled CSANs from αCD133-scFv-DHFR^2 protein (protein)
chain: MDIVLSQSPAIMSASPGEKVTISCSASSSVSYMYWYQQKPGSSPKPWIYRTSNLASGVPARFSGSGSGTSYSLTISSMEAEDAATYYCQQYHSYPPTFGAGTKLELKSSGGGGSGGGGGGSSRSSLEVKLVESGPELKKPGETVKISCKASGYTFTDYSMHWVNQAPGKGLKWMGWINTETGEPSYADDFKGRFAFSLETSASTAYLQINNLKNEDTATYFCATDYGDYFDYWGQGTTLTVSSELGGSGGGSGGGSGGMISLIAALAVDRVIGMENAMPWNLPADLAWFKRNTLNKPVIMGRHTWESIGRPLPGRKNIILSSQPGTDDRVTWVKSVDEAIAAAGDVPEIMVIGGGRVYEQFLPKAQKLYLTHIDAEVEGDTHFPDYEPDDWESVFSEFHDADAQNSHSYSFEILERRGMISLIAALAVDRVIGMENAMPWNLPADLAWFKRNTLNKPVIMGRHTWESIGRPLPGRKNIILSSQPGTDDRVTWVKSVDEAIAAAGDVPEIMVIGGGRVYEQFLPKAQKLYLTHIDAEVEGDTHFPDYEPDDWESVFSEFHDADAQNSHSYSFEILERRGGSGGGSGGGSGGDYKDDDDK
In the case of B1, the “binding to HT29-R cells” value in assay [1] was “specifically bind”.

B2: non-targeting DHFR^2-CVIA CSANs (other)
chain: GISLIAALAVDRVIGMENAMPWNLPADLAWFKRNTLNKPVIMGRHTWESIGRPLPGRKNIILSSQPGTDDRVTWVKSVDEAIAAAGDVPEIMVIGGGRVYEQFLPKAQKLYLTHIDAEVEGDTHFPDYEPDDWESVFSEFHDADAQNSHSYSFEILERRGGISLIAALAVDRVIGMENAMPWNLPADLAWFKRNTLNKPVIMGRHTWESIGRPLPGRKNIILSSQPGTDDRVTWVKSVDEAIAAAGDVPEIMVIGGGRVYEQFLPKAQKLYLTHIDAEVEGDTHFPDYEPDDWESVFSEFHDADAQNSHSYSFEILERRGGSGGSGGDYKDDDDKGGSGGSGGKKKKKKTCVIA
modifications: Non-specific NHS-fluorescein label on amines; monomers joined non-covalently into a predominantly octameric ring by bisMTX; the letters give one monomer.
notes: Control nanoring without targeting domain, unfarnesylated; 'predominantly octameric'
B2: the binding result in assay [2], in assay [3] and in assay [4] was “no binding (tested: 0.5 µM)” each time.

B3: DHFR^2-CVIA CSANs: non-targeting unfarnesylated control CSANs from DHFR^2-CVIA protein (protein)
chain: B2 chain
Consider B3, for which the “binding to receptor expressing target cells” value in assay [5] is on record as “no observable binding”.

B4: unfarnesylated αEpCAM-Fn3 CSANs (αEpCAM-Fn3-DHFR^2-CVIA oligomerized by bisMTX) (designed binder)
chain: MDYKDDDDKASSSDSPRNLEVTNATPNSLTISWDNSNYASYYRITYGETGGNSPSQELTVPGSTYNATISGLKPGQDYIITVYAVTYRDNYSYSNLISINYRSEIDKPSQGSGGSGGGGSGGGGSGGGGSGGGGSGGGGSGGGGSGGGGSGGGGSGGELGGISLIAALAVDRVIGMENAMPWNLPADLAWFKRNTLNKPVIMGRHTWESIGRPLPGRKNIILSSQPGTDDRVTWVKSVDEAIAAAGDVPEIMVIGGGRVYEQFLPKAQKLYLTHIDAEVEGDTHFPDYEPDDWESVFSEFHDADAQNSHSYSFEILERRGGISLIAALAVDRVIGMENAMPWNLPADLAWFKRNTLNKPVIMGRHTWESIGRPLPGRKNIILSSQPGTDDRVTWVKSVDEAIAAAGDVPEIMVIGGGRVYEQFLPKAQKLYLTHIDAEVEGDTHFPDYEPDDWESVFSEFHDADAQNSHSYSFEILERRGGSGGGSGGHHHHHHGGSGGSGGKKKKKKTCVIA
modifications: Non-specific NHS-fluorescein label on amines; monomers joined non-covalently into a predominantly octameric ring by bisMTX; the letters give one monomer.
notes: Fn3-DHFR^2 fusion nanoring formed with bisMTX; 'predominantly octameric'; also called anti-EpCAM-C5-Fn-1DD-CVIA
Regarding B4, in assay [6], the binding result is listed as “binds”.
